Where two headings read alike, the source gives them in different places.
Substrate: O=[N+]([O-])c1ccc(O[C@@H]2O[C@H](CO)[C@@H](O)[C@H](O)[C@H]2O)cc1
Test: purified protein
[1] = average of two wild-type replicates (WT-1 2.4 mM, WT-2 5.3 ± 0.4 mM)
[2] = error exceeds the value, nearly inactive
[3] = poorly determined fit: large printed errors

B1: β-glucosidase B (BglB) (Paenibacillus polymyxa) (protein)
chain: MSENTFIFPATFMWGTSTSSYQIEGGTDEGGRTPSIWDTFCQIPGKVIGGDCGDVACDHFHHFKEDVQLMKQLGFLHYRFSVAWPRIMPAAGIINEEGLLFYEHLLDEIELAGLIPMLTLYHWDLPQWIEDEGGWTQRETIQHFKTYASVIMDRFGERINWWNTINEPYCASILGYGTGEHAPGHENWREAFTAAHHILMCHGIASNLHKEKGLTGKIGITLNMEHVDAASERPEDVAAAIRRDGFINRWFAEPLFNGKYPEDMVEWYGTYLNGLDFVQPGDMELIQQPGDFLGINYYTRSIIRSTNDASLLQVEQVHMEEPVTDMGWEIHPESFYKLLTRIEKDFSKGLPILITENGAAMRDELVNGQIEDTGRHGYIEEHLKACHRFIEEGGQLKGYFVWSFLDNFEWAWGYSKRFGIVHINYETQERTPKQSALWFKQMMAKNGF
[1]
  Km: 3.9 ± 0.3 mM
  kcat: 12.4 ± 0.158 s⁻¹

B2: β-glucosidase B (BglB) (Paenibacillus polymyxa; N163E) (protein)
chain: MSENTFIFPATFMWGTSTSSYQIEGGTDEGGRTPSIWDTFCQIPGKVIGGDCGDVACDHFHHFKEDVQLMKQLGFLHYRFSVAWPRIMPAAGIINEEGLLFYEHLLDEIELAGLIPMLTLYHWDLPQWIEDEGGWTQRETIQHFKTYASVIMDRFGERINWWETINEPYCASILGYGTGEHAPGHENWREAFTAAHHILMCHGIASNLHKEKGLTGKIGITLNMEHVDAASERPEDVAAAIRRDGFINRWFAEPLFNGKYPEDMVEWYGTYLNGLDFVQPGDMELIQQPGDFLGINYYTRSIIRSTNDASLLQVEQVHMEEPVTDMGWEIHPESFYKLLTRIEKDFSKGLPILITENGAAMRDELVNGQIEDTGRHGYIEEHLKACHRFIEEGGQLKGYFVWSFLDNFEWAWGYSKRFGIVHINYETQERTPKQSALWFKQMMAKNGF
Error exceeds the value
  Km: 21.4 ± 52.4 mM
  kcat: 1.02 ± 0.483 s⁻¹

B3: β-glucosidase B (BglB) (Paenibacillus polymyxa; M224L) (protein)
chain: MSENTFIFPATFMWGTSTSSYQIEGGTDEGGRTPSIWDTFCQIPGKVIGGDCGDVACDHFHHFKEDVQLMKQLGFLHYRFSVAWPRIMPAAGIINEEGLLFYEHLLDEIELAGLIPMLTLYHWDLPQWIEDEGGWTQRETIQHFKTYASVIMDRFGERINWWNTINEPYCASILGYGTGEHAPGHENWREAFTAAHHILMCHGIASNLHKEKGLTGKIGITLNLEHVDAASERPEDVAAAIRRDGFINRWFAEPLFNGKYPEDMVEWYGTYLNGLDFVQPGDMELIQQPGDFLGINYYTRSIIRSTNDASLLQVEQVHMEEPVTDMGWEIHPESFYKLLTRIEKDFSKGLPILITENGAAMRDELVNGQIEDTGRHGYIEEHLKACHRFIEEGGQLKGYFVWSFLDNFEWAWGYSKRFGIVHINYETQERTPKQSALWFKQMMAKNGF
  Km: 4.2 mM
  kcat: 10.51 s⁻¹

B4: β-glucosidase B (BglB) (Paenibacillus polymyxa; E409W) (protein)
chain: MSENTFIFPATFMWGTSTSSYQIEGGTDEGGRTPSIWDTFCQIPGKVIGGDCGDVACDHFHHFKEDVQLMKQLGFLHYRFSVAWPRIMPAAGIINEEGLLFYEHLLDEIELAGLIPMLTLYHWDLPQWIEDEGGWTQRETIQHFKTYASVIMDRFGERINWWNTINEPYCASILGYGTGEHAPGHENWREAFTAAHHILMCHGIASNLHKEKGLTGKIGITLNMEHVDAASERPEDVAAAIRRDGFINRWFAEPLFNGKYPEDMVEWYGTYLNGLDFVQPGDMELIQQPGDFLGINYYTRSIIRSTNDASLLQVEQVHMEEPVTDMGWEIHPESFYKLLTRIEKDFSKGLPILITENGAAMRDELVNGQIEDTGRHGYIEEHLKACHRFIEEGGQLKGYFVWSFLDNFWWAWGYSKRFGIVHINYETQERTPKQSALWFKQMMAKNGF
[2]
  Km: 2.5 ± 3.1 mM
  kcat: 0.0017 ± 0.0017 s⁻¹

B5: β-glucosidase B (BglB) (Paenibacillus polymyxa; L174M) (protein)
chain: MSENTFIFPATFMWGTSTSSYQIEGGTDEGGRTPSIWDTFCQIPGKVIGGDCGDVACDHFHHFKEDVQLMKQLGFLHYRFSVAWPRIMPAAGIINEEGLLFYEHLLDEIELAGLIPMLTLYHWDLPQWIEDEGGWTQRETIQHFKTYASVIMDRFGERINWWNTINEPYCASIMGYGTGEHAPGHENWREAFTAAHHILMCHGIASNLHKEKGLTGKIGITLNMEHVDAASERPEDVAAAIRRDGFINRWFAEPLFNGKYPEDMVEWYGTYLNGLDFVQPGDMELIQQPGDFLGINYYTRSIIRSTNDASLLQVEQVHMEEPVTDMGWEIHPESFYKLLTRIEKDFSKGLPILITENGAAMRDELVNGQIEDTGRHGYIEEHLKACHRFIEEGGQLKGYFVWSFLDNFEWAWGYSKRFGIVHINYETQERTPKQSALWFKQMMAKNGF
  Km: 4.3 ± 0.3 mM
  kcat: 14.79 ± 0.405 s⁻¹

B6: β-glucosidase B (BglB) (Paenibacillus polymyxa; F418M) (protein)
chain: MSENTFIFPATFMWGTSTSSYQIEGGTDEGGRTPSIWDTFCQIPGKVIGGDCGDVACDHFHHFKEDVQLMKQLGFLHYRFSVAWPRIMPAAGIINEEGLLFYEHLLDEIELAGLIPMLTLYHWDLPQWIEDEGGWTQRETIQHFKTYASVIMDRFGERINWWNTINEPYCASILGYGTGEHAPGHENWREAFTAAHHILMCHGIASNLHKEKGLTGKIGITLNMEHVDAASERPEDVAAAIRRDGFINRWFAEPLFNGKYPEDMVEWYGTYLNGLDFVQPGDMELIQQPGDFLGINYYTRSIIRSTNDASLLQVEQVHMEEPVTDMGWEIHPESFYKLLTRIEKDFSKGLPILITENGAAMRDELVNGQIEDTGRHGYIEEHLKACHRFIEEGGQLKGYFVWSFLDNFEWAWGYSKRMGIVHINYETQERTPKQSALWFKQMMAKNGF
[3]
  Km: 29.6 ± 20.5 mM
  kcat: 0.37 ± 0.572 s⁻¹

B7: β-glucosidase B (BglB) (Paenibacillus polymyxa; H181M) (protein)
chain: MSENTFIFPATFMWGTSTSSYQIEGGTDEGGRTPSIWDTFCQIPGKVIGGDCGDVACDHFHHFKEDVQLMKQLGFLHYRFSVAWPRIMPAAGIINEEGLLFYEHLLDEIELAGLIPMLTLYHWDLPQWIEDEGGWTQRETIQHFKTYASVIMDRFGERINWWNTINEPYCASILGYGTGEMAPGHENWREAFTAAHHILMCHGIASNLHKEKGLTGKIGITLNMEHVDAASERPEDVAAAIRRDGFINRWFAEPLFNGKYPEDMVEWYGTYLNGLDFVQPGDMELIQQPGDFLGINYYTRSIIRSTNDASLLQVEQVHMEEPVTDMGWEIHPESFYKLLTRIEKDFSKGLPILITENGAAMRDELVNGQIEDTGRHGYIEEHLKACHRFIEEGGQLKGYFVWSFLDNFEWAWGYSKRFGIVHINYETQERTPKQSALWFKQMMAKNGF
  Km: 5.6 ± 1.9 mM
  kcat: 11.98 ± 1.807 s⁻¹

Source: doi:10.1101/2020.11.17.387829v1
